The values below come from publication PMC9294231, “gC1qR/C1qBP/HABP-1: Structural Analysis of the Trimeric Core Region, Interactions With a Novel Panel of Monoclonal Antibodies, and Their Influence on Binding to FXII” (Frontiers in Immunology, 2022).

In assay [1] the target is wild-type gC1qR (human) (UniProt Q07021). Put plainly: SEC; analytical gel filtration (Superdex 200 Increase 10/300 GL) of purified FXII, wild-type gC1qR and gC1qR/FXII in a Zn++-containing buffer, compared to size standards.
The target in assay [2] is T1, wild-type gC1qR (residues 74-282) (human, UniProt Q07021 74-282).
T1 construct: gC1qR/C1qBP/HABP-1, human, residues 74-282 (the mature form of the 282-residue pre-pro protein); Expressed from vector pT7HMT; the tag was removed with TEV protease; also called C1qBP; HABP-1; source: E. coli BL21(DE3), purified (NiNTA, TEV digestion, gel filtration Superdex S200)
T1 sequence (looked up): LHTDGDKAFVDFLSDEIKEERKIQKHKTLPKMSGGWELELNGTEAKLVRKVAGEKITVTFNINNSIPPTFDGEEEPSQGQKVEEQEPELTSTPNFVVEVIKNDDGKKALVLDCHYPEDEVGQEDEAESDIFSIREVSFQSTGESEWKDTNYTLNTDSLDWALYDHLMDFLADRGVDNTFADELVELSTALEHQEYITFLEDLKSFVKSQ
The experiment in a line: SEC; gel filtration on Superdex S200 in PBS (pH 7.4); solution behaviour shown in Figure S1 (not shown to me).

Assay [3] has as its target gC1qR-D2 (loop 2 deletion mutant) (human) (UniProt Q07021). Put plainly: SEC; analytical gel filtration of purified gC1qR proteins on Superdex 200 Increase 10/300 GL, compared to size standards (670, 66, 13 kDa).
The target of assay [4] is gC1qR-DD (human) (UniProt Q07021). Put plainly: SEC; gel filtration on Superdex S200 in PBS (pH 7.4); solution behaviour shown in Figure S1 (not shown to me).
The target in assay [5] is gC1qR-D2 (human) (UniProt Q07021). The description is as above.
The target in assay [6] is gC1qR-DD-avi, enzymatically biotinylated (human) (UniProt Q07021). Put plainly: SPR; enzymatically biotinylated gC1qR-avi or gC1qR-DD-avi captured to 100 RU on an SA chip; FXII or FXIIa injected 1.6 to 800 nM; 25°C, HBS-T with 50 µM ZnCl2; ligand heterogeneity model with two independent binding sites; apparent.
Assay [7] deals with gC1qR-avi, enzymatically biotinylated (human) (UniProt Q07021). The description is as above.
The target of assay [8] is gC1qR-D1 (human) (UniProt Q07021). The experiment in a line: SEC; gel filtration on Superdex S200 in PBS (pH 7.4); solution behaviour shown in Figure S1 (not shown to me).
Assay [9] deals with gC1qR-D1 (loop 1 deletion mutant) (human) (UniProt Q07021). Put plainly: SEC; analytical gel filtration of purified gC1qR proteins on Superdex 200 Increase 10/300 GL, compared to size standards (670, 66, 13 kDa).
Assay [10] addresses gC1qR-DD (double loop deletion mutant) (human) (UniProt Q07021). The description is as above.
Assay [11] concerns the target HKH-20 HKH-20 peptide (Homo sapiens) (UniProt P01042). The experiment in a line: ITC. As to conditions: cited from earlier work.
Assay [12] addresses wild-type gC1qR (human) (UniProt Q07021). Put plainly: SEC; analytical gel filtration of purified gC1qR proteins on Superdex 200 Increase 10/300 GL, compared to size standards (670, 66, 13 kDa).
Assay [13] concerns the target gC1qR-D2 (human) (UniProt Q07021). The experiment in a line: SPR; gC1qR proteins amine-coupled to a CMD200M chip (gC1qR 361 RU, D1 487 RU, D2 360 RU, DD 874 RU); HKH-20 injected 46.9 nM to 10 µM; 25°C, HBS-T (20 mM HEPES pH 7.4, 140 mM NaCl, 0.005% Tween-20); affinity (dose/response) model, apparent KD.
Assay [14] addresses gC1qR-D1 (human) (UniProt Q07021). The assay is described as above.
The target of assay [15] is T1, wild-type gC1qR (residues 74-282). The description is as above. As to conditions: both partners purified.

Factor XII (native) (natural protein) returned a stoichiometry N (FXII monomer per gC1qR trimer) in [1] of 1.
The molecule “wild-type gC1qR (residues 74-282) (from UniProt Q07021 74-282) (natural protein; other documents disagree on this pair)” gave a stoichiometry N in assay [2] of 3.
“gC1qR-D2 (loop 2 deletion mutant) (from UniProt Q07021 74-282) (domain or fragment)” yielded a stoichiometry N in assay [3] of 3.
Molecule “gC1qR-DD (from UniProt Q07021 74-138; Q07021 164-189; Q07021 202-282) (natural protein)” displayed a stoichiometry N in [4] of 3.
The molecule “gC1qR-D2 (from UniProt Q07021 74-189; Q07021 202-282) (natural protein)” registered a stoichiometry N in assay [5] of 3.
For activated Factor XIIa (FXIIa) (enzyme), in assay [6], the KD-1 (first binding site) worked out at 0.12 nM, the KD-2 (second binding site) came to 178 nM, the ka-1 (first binding site) turned out to be 1.13e+06 M⁻¹ s⁻¹ and the ka-2 (second binding site) came out at 63700 M⁻¹ s⁻¹. For the same molecule, in assay [6], the kd-1 (first binding site) amounted to 0.000147 s⁻¹ and the kd-2 (second binding site) was 0.0112 s⁻¹. Besides, in [7], the KD-1 (first binding site) was found to be 0.27 nM, the KD-2 (second binding site) worked out at 134 nM, the ka-1 (first binding site) was found to be 408000 M⁻¹ s⁻¹ and the ka-2 (second binding site) was 48200 M⁻¹ s⁻¹. Further, in assay [7], the kd-1 (first binding site) worked out at 9e-05 s⁻¹ and the kd-2 (second binding site) was 0.0063 s⁻¹.
On to “gC1qR-D1 (from UniProt Q07021 74-138; Q07021 164-282) (natural protein)”, for which, in assay [8], the stoichiometry N is 3.
Consider “gC1qR-D1 (loop 1 deletion mutant) (from UniProt Q07021 74-282) (domain or fragment)”, for which the stoichiometry N in assay [9] worked out at 3.
“native coagulation factor XII (FXII) (natural protein)”: in assay [6], the KD-1 (first binding site) is 1.69 nM, the KD-2 (second binding site) is 26.4 nM, the ka-1 (first binding site) is 674000 M⁻¹ s⁻¹ and the ka-2 (second binding site) turned out to be 34800 M⁻¹ s⁻¹. Moreover, in assay [6], the kd-1 (first binding site) came out at 0.00114 s⁻¹ and the kd-2 (second binding site) came to 0.00091 s⁻¹. Also, in assay [7], the KD-1 (first binding site) amounted to 4.85 nM, the KD-2 (second binding site) came to 97.6 nM, the ka-1 (first binding site) was found to be 676000 M⁻¹ s⁻¹ and the ka-2 (second binding site) was determined as 23700 M⁻¹ s⁻¹. Further, in assay [7], the kd-1 (first binding site) is 0.00316 s⁻¹ and the kd-2 (second binding site) was 0.0023 s⁻¹.
In turn, “gC1qR-DD (double loop deletion mutant) (from UniProt Q07021 74-282) (domain or fragment)” gave a stoichiometry N in [10] of 3.
As to gC1qR (from UniProt Q07021), the Kd in [11] was 6300 nM.
In assay [12], “wild-type gC1qR (from UniProt Q07021 74-282) (domain or fragment; other documents disagree on this pair)” returned a stoichiometry N of 3.

B1: peptide HKH-20 (peptide)
peptide: HKHGHGHGKHKNKGKKNGKH
notes: The discussion speaks of peptides derived from HMWK residues 493-516 in general; also called HKH-20 peptide; source: synthetic peptide (GenScript)
For B1, the Kd came out at 10000 nM in assay [13], 10000 nM in assay [14] and 8700 nM in assay [15].
